Source: the supplement of paper PMC10567573

B1: CDC14A (parent)
chain: GPHPKSKIENGYPLHAPEAYFPYF

Variants of: B1
Assay: protein stability index of a GFP-peptide fusion (GPS, HEK-293T) (PSI 1-6); higher = more stable
Settings: c terminus: a fixed tail appended
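Also: lentivirally expressed fusions sorted by FACS into six bins by GFP to DsRed ratio, PSI derived from sequencing read proportions per bin multiplied by bin number.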

First: GPHPKSKIENGYPLHAPVAYFPYF [E18V]
Second: GPHPKSKIENGYPLHAPQAYFPYF [E18Q]
The protein stability index of the first is lower: 1.57 for the first, 2.31 for the second.

Compared with GPHPKSKIENGYPLHAPHAYFPYF [E18H], GPHPKSKIENGYPLHAPSAYFPYF [E18S] is higher in protein stability index: 2.24 for the first, 2.28 for the second.

First: GPHPKSKIENGYPLHAPKAYFPYF [E18K]
Second: GPHPKSKIENGYPLHAPIAYFPYF [E18I]
The protein stability index of the first is higher: 2.23 for the first, 1.95 for the second.

Going from GPHPKSKIENGYPLHAPMAYFPYF [E18M] to GPHPKSKIENGYPLHAPRAYFPYF [E18R], the protein stability index rises from 1.45 to 2.69.

Compared with GPHPKSKIENGYPLHAPLAYFPYF [E18L], GPHPKSKIENGYPLHAPYAYFPYF [E18Y] is higher in protein stability index: 2.03 for the first, 2.22 for the second.

First: GPHPKSKIENGYPLHAPNAYFPYF [E18N]
Second: GPHPKSKIENGYPLHAPWAYFPYF [E18W]
The protein stability index of the first is higher: 2.01 for the first, 1.56 for the second.

Going from GPHPKSKIENGYPLHAPTAYFPYF [E18T] to GPHPKSKIENGYPLHAPEAHFPYF [Y20H], the protein stability index rises from 2.01 to 2.71.

Going from GPHPKSKIENGYPLHAPEAVFPYF [Y20V] to GPHPKSKIENGYPLHAPEAEFPYF [Y20E], the protein stability index rises from 2.55 to 2.76.

Compared with GPHPKSKIENGYPLHAPEAWFPYF [Y20W], GPHPKSKIENGYPLHAPEAQFPYF [Y20Q] is higher in protein stability index: 2.19 for the first, 2.55 for the second.

Going from GPHPKSKIENGYPLHAPEALFPYF [Y20L] to GPHPKSKIENGYPLHAPEAIFPYF [Y20I], the protein stability index falls from 3.1 to 2.57.

Going from GPHPKSKIENGYPLHAPEAKFPYF [Y20K] to GPHPKSKIENGYPLHAPEADFPYF [Y20D], the protein stability index rises from 2.79 to 3.29.

Going from GPHPKSKIENGYPLHAPEACFPYF [Y20C] to GPHPKSKIENGYPLHAPEATFPYF [Y20T], the protein stability index rises from 2.19 to 2.84.

Compared with GPHPKSKIENGYPLHAPEASFPYF [Y20S], GPHPKSKIENGYPLHAPEAFFPYF [Y20F] is lower in protein stability index: 2.55 for the first, 1.89 for the second.

Going from GPHPKSKIENGYPLHAPEAGFPYF [Y20G] to GPHPKSKIENGYPLHAPEAMFPYF [Y20M], the protein stability index falls from 3.25 to 2.71.

Going from GPHPKSKIENGYPLHAPEAAFPYF [Y20A] to GPHPKSKIENGYPLHAPEANFPYF [Y20N], the protein stability index falls from 2.76 to 2.63.

First: GPHPKSKIENGYPLHAPEARFPYF [Y20R]
Second: GPHPKSKIENGYPLHAPEPYFPYF [A19P]
The protein stability index of the first is higher: 2.44 for the first, 2.41 for the second.

Compared with GPHPKSKIENGYPLHAPEVYFPYF [A19V], GPHPKSKIENGYPLHAPELYFPYF [A19L] is higher in protein stability index: 1.89 for the first, 1.98 for the second.

First: GPHPKSKIENGYPLHAPEHYFPYF [A19H]
Second: GPHPKSKIENGYPLHAPEKYFPYF [A19K]
The protein stability index of the first is lower: 2.22 for the first, 2.51 for the second.

First: GPHPKSKIENGYPLHAPENYFPYF [A19N]
Second: GPHPKSKIENGYPLHAPEFYFPYF [A19F]
The protein stability index of the first is higher: 2.71 for the first, 2.39 for the second.

First: GPHPKSKIENGYPLHAPEIYFPYF [A19I]
Second: GPHPKSKIENGYPLHAPETYFPYF [A19T]
The protein stability index of the first is lower: 2.38 for the first, 2.39 for the second.

Compared with GPHPKSKIENGYPLHAPEYYFPYF [A19Y], GPHPKSKIENGYPLHAPEWYFPYF [A19W] is lower in protein stability index: 2.35 for the first, 1.87 for the second.

Compared with GPHPKSKIENGYPLHAPEEYFPYF [A19E], GPHPKSKIENGYPLHAPECYFPYF [A19C] is lower in protein stability index: 2.36 for the first, 1.8 for the second.

Compared with GPHPKSKIENGYPLHAPESYFPYF [A19S], GPHPKSKIENGYPLHAPEGYFPYF [A19G] is lower in protein stability index: 2.35 for the first, 2.22 for the second.

Compared with GPHPKSKIENGYPLHAPEMYFPYF [A19M], GPHPKSKIENGYPLHAPEDYFPYF [A19D] is lower in protein stability index: 2.97 for the first, 2.2 for the second.

Going from GPHPKSKIENGYPLHAPEQYFPYF [A19Q] to GPHPKSKIENGYPLHAPERYFPYF [A19R], the protein stability index falls from 2.48 to 1.78.

Going from GPHPKSKIENGYPLHAPEAYSPYF [F21S] to GPHPKSKIENGYPLHAPEAYMPYF [F21M], the protein stability index falls from 2.96 to 2.69.

Compared with GPHPKSKIENGYPLHAPEAYLPYF [F21L], GPHPKSKIENGYPLHAPEAYDPYF [F21D] is higher in protein stability index: 2.17 for the first, 3.55 for the second.

Compared with GPHPKSKIENGYPLHAPEAYYPYF [F21Y], GPHPKSKIENGYPLHAPEAYCPYF [F21C] is higher in protein stability index: 2.44 for the first, 2.92 for the second.

Going from GPHPKSKIENGYPLHAPEAYIPYF [F21I] to GPHPKSKIENGYPLHAPEAYVPYF [F21V], the protein stability index rises from 2.17 to 2.9.

First: GPHPKSKIENGYPLHAPEAYKPYF [F21K]
Second: GPHPKSKIENGYPLHAPEAYRPYF [F21R]
The protein stability index of the first is higher: 3.05 for the first, 2.94 for the second.

Going from GPHPKSKIENGYPLHAPEAYAPYF [F21A] to GPHPKSKIENGYPLHAPEAYNPYF [F21N], the protein stability index falls from 3 to 2.91.

Going from GPHPKSKIENGYPLHAPEAYWPYF [F21W] to GPHPKSKIENGYPLHAPEAYGPYF [F21G], the protein stability index rises from 2.71 to 2.8.

Compared with GPHPKSKIENGYPLHAPEAYHPYF [F21H], GPHPKSKIENGYPLHAPEAYQPYF [F21Q] is higher in protein stability index: 2.47 for the first, 2.85 for the second.

Going from GPHPKSKIENGYPLHAPEAYFPCF [Y23C] to GPHPKSKIENGYPLHAPEAYFPLF [Y23L], the protein stability index falls from 2.77 to 1.95.

Compared with GPHPKSKIENGYPLHAPEAYFPEF [Y23E], GPHPKSKIENGYPLHAPEAYFPIF [Y23I] is lower in protein stability index: 3.4 for the first, 2.4 for the second.

First: GPHPKSKIENGYPLHAPEAYFPGF [Y23G]
Second: GPHPKSKIENGYPLHAPEAYFPKF [Y23K]
The protein stability index of the first is higher: 3.21 for the first, 3.13 for the second.

Compared with GPHPKSKIENGYPLHAPEAYFPFF [Y23F], GPHPKSKIENGYPLHAPEAYFPAF [Y23A] is higher in protein stability index: 2.23 for the first, 2.93 for the second.

Compared with GPHPKSKIENGYPLHAPEAYFPMF [Y23M], GPHPKSKIENGYPLHAPEAYFPHF [Y23H] is higher in protein stability index: 2.32 for the first, 2.97 for the second.

Compared with GPHPKSKIENGYPLHAPEAYFPDF [Y23D], GPHPKSKIENGYPLHAPEAYFGYF [P22G] is lower in protein stability index: 3.92 for the first, 1.8 for the second.

First: GPHPKSKIENGYPLHAPEAYFRYF [P22R]
Second: GPHPKSKIENGYPLHAPEAYFCYF [P22C]
The protein stability index of the first is lower: 2.5 for the first, 2.9 for the second.

Compared with GPHPKSKIENGYPLHAPEAYFVYF [P22V], GPHPKSKIENGYPLHAPEAYFWYF [P22W] is higher in protein stability index: 2.19 for the first, 2.54 for the second.

Going from GPHPKSKIENGYPLHAPEAYFDYF [P22D] to GPHPKSKIENGYPLHAPEAYFQYF [P22Q], the protein stability index falls from 2.73 to 2.47.

Compared with GPHPKSKIENGYPLHAPEAYFLYF [P22L], GPHPKSKIENGYPLHAPEAYFHYF [P22H] is lower in protein stability index: 2.38 for the first, 1.6 for the second.

Compared with GPHPKSKIENGYPLHAPEAYFEYF [P22E], GPHPKSKIENGYPLHAPEAYFIYF [P22I] is higher in protein stability index: 2.22 for the first, 3.32 for the second.

Going from GPHPKSKIENGYPLHAPEAYFMYF [P22M] to GPHPKSKIENGYPLHAPEAYFTYF [P22T], the protein stability index falls from 2.76 to 1.64.

Going from GPHPKSKIENGYPLHAPEAYFKYF [P22K] to GPHPKSKIENGYPLHAPEAYFAYF [P22A], the protein stability index falls from 2.67 to 1.61.

First: GPHPKSKIENGYPLHAPEAYFNYF [P22N]
Second: GPHPKSKIENGYPLHAPEAYFSYF [P22S]
The protein stability index of the first is higher: 1.99 for the first, 1.98 for the second.
